Assay results as given in paper PMC6599006 (Scientific Reports, 2019).

B1: DP1 (peptide)
peptide: EHEEIFMESKGWR
notes: designed with the Miyazawa-Jernigan potential, one by one residue design, 13 residues; also called designed peptide DP1; source: synthetic peptide, without caps, at least 95% purity (Toray Research Center Inc.)
B2: DP4 (peptide)
peptide: DHIEDEEGNDSDEHEE
notes: designed with the Miyazawa-Jernigan potential, one by one residue design, 16 residues; also called designed peptide DP4; source: synthetic peptide, without caps, at least 95% purity (Toray Research Center Inc.)
B3: DP2 (peptide)
peptide: EDEEGNDSDEHEE
notes: designed with the Miyazawa-Jernigan potential, one by one residue design, 13 residues; also called designed peptide DP2; source: synthetic peptide, without caps, at least 95% purity (Toray Research Center Inc.)
B4: DP3 (peptide)
peptide: DEHEEIFMESKGWRDR
notes: designed with the Miyazawa-Jernigan potential, one by one residue design, 16 residues; also called designed peptide DP3; source: synthetic peptide, without caps, at least 95% purity (Toray Research Center Inc.)
B5: DP6 (peptide)
peptide: EEEEEDNNDDDEEEWF
notes: designed with the Miyazawa-Jernigan potential, one by three residue design, 16 residues; designed target is residues 369-384 of p53; also called designed peptide DP6; source: synthetic peptide, without caps, at least 95% purity (Toray Research Center Inc.)
B6: DP5 (peptide)
peptide: EEEEDNNDDDEEE
notes: designed with the Miyazawa-Jernigan potential, one by three residue design, 13 residues; also called designed peptide DP5; source: synthetic peptide, without caps, at least 95% purity (Toray Research Center Inc.)

What follows are binders tested against T1, CT peptide (residues 367–393 of human p53) labeled with FAM at the N-terminus (human, UniProt P04637 367-393, FAM at the N-terminus) (assay: fluorescence polarisation; fluorescence anisotropy; nonlabeled peptide titrated into 5 nM FAM-labeled CT peptide; 25 °C; 20 mM HEPES, 0.5 mM EDTA, 1 mM DTT, 0.2 mg/mL BSA, pH 7.9; in the absence of salt; apparent dissociation constant, one by one binding fit). Settings: both partners purified.
T1 construct: p53, human, residues 367-393 (C-terminal domain); also called CT peptide of p53; monomeric CT domain of p53; source: synthetic peptide, without caps, at least 95% purity (Toray Research Center Inc.)
T1 sequence (P04637 367-393): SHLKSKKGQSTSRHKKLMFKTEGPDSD

Kd [µM] | Binder
60 | B1
9 | B2
23 | B3
550 | B4
1.2 | B5
3.2 | B6
